Measured values reported in paper PMC5118791, “Beyond Antibodies: Development of a Novel Protein Scaffold Based on Human Chaperonin 10” (Scientific Reports, 2016).

Assays:
[1] = target: T1, recombinant Factor VIIa (rFVIIa); assay: BLI; Octet Red, Ni-NTA biosensors, 37 °C, 1000 rpm; association 180 sec, dissociation 10 min; 1:1 model, global fit; the legend of Figure 4b says rFVIIa was immobilised; conditions: both partners purified
T1 construct: rFVIIa (NovoSeven RT); no His tag on rFVIIa is stated anywhere; also called NovoSeven RT; source: bought: NovoSeven RT (named for the ELISA)

[2] = target: the molecule itself; assay: SEC; analytical SE-HPLC, TSK G3000SWXL, 0.1 M phosphate pH 7.8, 0.2 M NaCl, 1 mg/mL, 0.8 mL/min, 25 °C; calibrated with BioRad standards
[3] = target: T1, recombinant Factor VIIa (rFVIIa); assay: cell-based or functional assay

T1 sequence (P08709 whole entry): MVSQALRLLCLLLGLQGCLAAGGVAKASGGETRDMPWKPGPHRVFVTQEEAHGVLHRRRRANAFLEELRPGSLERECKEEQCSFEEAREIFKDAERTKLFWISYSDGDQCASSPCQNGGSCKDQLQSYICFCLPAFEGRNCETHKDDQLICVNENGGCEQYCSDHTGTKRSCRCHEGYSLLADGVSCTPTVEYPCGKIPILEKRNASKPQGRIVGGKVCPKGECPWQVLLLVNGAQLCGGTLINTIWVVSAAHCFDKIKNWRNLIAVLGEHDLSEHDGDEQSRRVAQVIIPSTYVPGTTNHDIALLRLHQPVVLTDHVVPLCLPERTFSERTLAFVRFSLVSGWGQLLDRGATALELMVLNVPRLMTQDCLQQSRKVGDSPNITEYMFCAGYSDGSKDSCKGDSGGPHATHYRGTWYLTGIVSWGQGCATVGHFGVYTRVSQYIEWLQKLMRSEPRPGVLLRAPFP

Binder	Kd [1]	stoichiometry N [2]	inhibition of FX activation by TF-FVIIa (chromogenic substrate S-2765), IC50 [3]	inhibition of amidolytic activity of FVIIa (Chromozym t-PA) in the presence of TF, IC50 [3]	inhibition of amidolytic activity of FVIIa (Chromozym t-PA) without TF, IC50 [3]	prothrombin time (PT) in citrated human plasma, 0.001-100 μM, fold prolongation over normal clotting time [3]
CE76-P1 (hCpn10 scaffold displaying the E-76 peptide with P1 linkers) (designed binder) AGQAFRKFLPLFDRVLVERSAAAPALCDDPRVDRWYCQFVEGAAPGKVLQATVVAVGSGSKGKGGEIQPVSVKVGDKVLLPEYGGTKVVLDDKDYFLFRDGDILGKYVD	3 nM	7	1.5 nM	6.8 nM	8.4 nM	7 fold
CE76-E5 (hCpn10 scaffold displaying the E-76 peptide with E5 linkers) (designed binder) AGQAFRKFLPLFDRVLVERSAAETVALCDDPRVDRWYCQFVEGEKSQGKVLQATVVAVGSGSKGKGGEIQPVSVKVGDKVLLPEYGGTKVVLDDKDYFLFRDGDILGKYVD	5.5 nM	7	–	–	–	–
